Among the data in patent US20200370085A1 are Kd values, retold here.

This assay addresses VEGF (UniProt P15692). The experiment in a line: solution equilibrium titration (SET) ELISA, crude IVT product 1:400, monovalent fit.
Chain of UniProt P15692 (P15692 other isoform, or with tags, fused parts or gaps limits assumed): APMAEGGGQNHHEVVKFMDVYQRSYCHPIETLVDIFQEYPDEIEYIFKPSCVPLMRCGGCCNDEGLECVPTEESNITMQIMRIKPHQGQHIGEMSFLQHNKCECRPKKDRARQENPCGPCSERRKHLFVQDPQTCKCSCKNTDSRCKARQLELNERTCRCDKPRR
For the substance [S105T] Avastin scFv, the Kd amounted to 8.99 pM.
Under [N31H] Avastin scFv stands 4.03 pM; under [H101Y] Avastin scFv, 11.1 pM.
